Data as given in patent publication US20200297818A1 (ZEALAND PHARMA A S, published 2020).
*1 amine or outer side, *2 acyl side, *3 side chain or, on linkers, in order; H or OH if unused. Where no end group is shown, it is not given here. Side-chain parts run from the residue outwards. [ ]: non-standard residue; d: D form. The star is where a group is joined. C20 diacid = O=C(O)CCCCCCCCCCCCCCCCCCC(=O)*; C18 diacid = O=C(O)CCCCCCCCCCCCCCCCC(=O)*; γGlu = O=C(O)[C@H](CCC(=O)[*:2])N[*:1]; AEEA = NCCOCCOCC(=O)O; Aib = CC(C)(N)C(=O)O

T1: human GLP-2 receptor (hGLP2-R) (human, UniProt O95838 1-553)
T1 sequence (looked up): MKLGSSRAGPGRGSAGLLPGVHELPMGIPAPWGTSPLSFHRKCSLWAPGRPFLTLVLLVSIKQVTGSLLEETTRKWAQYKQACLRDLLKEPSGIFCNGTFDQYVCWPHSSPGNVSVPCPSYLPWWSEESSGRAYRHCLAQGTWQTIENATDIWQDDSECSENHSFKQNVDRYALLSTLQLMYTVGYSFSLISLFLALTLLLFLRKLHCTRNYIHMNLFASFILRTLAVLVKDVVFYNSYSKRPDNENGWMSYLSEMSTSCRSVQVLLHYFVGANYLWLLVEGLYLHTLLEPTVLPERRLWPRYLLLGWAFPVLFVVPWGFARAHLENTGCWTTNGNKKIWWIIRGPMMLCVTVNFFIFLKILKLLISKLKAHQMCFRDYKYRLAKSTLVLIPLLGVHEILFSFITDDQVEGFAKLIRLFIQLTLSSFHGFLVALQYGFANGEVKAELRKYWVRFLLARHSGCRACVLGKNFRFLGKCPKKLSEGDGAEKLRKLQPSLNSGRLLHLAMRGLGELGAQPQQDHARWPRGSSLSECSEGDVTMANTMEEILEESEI

B1: Compound 6 (peptide)
peptide: H[Aib]EGTFTSELATILDK([γGlu-C18 diacid])KAARDFIAWLIEHKITD-OH
B2: Compound 64 (peptide)
peptide: H-H[Aib]EGSFTSELATILDEQAAK([AEEA-Lys-Glu-Lys-γGlu-C20 diacid])DFIAWLIEHKITD-OH
B3: Compound 65 (peptide)
peptide: H-H[Aib]EGTFTSELATILDEQAAK([AEEA-Lys-Glu-Lys-γGlu-C20 diacid])DFIAWLIEHKITD-OH
B4: Compound 68 (peptide)
peptide: H-H[Aib]EGSFTSELATILDAKAAK([AEEA-Lys-Glu-Lys-γGlu-C20 diacid])DFIAWLIEHKITD-OH
B5: Compound 4 (peptide)
peptide: H[Aib]EGTFSSELATILDK([γGlu-C18 diacid])KAARDFIAWLIEHKITD-OH
B6: Compound 66 (peptide)
peptide: H-H[Aib]EGSFTSELATILDEQAAK([AEEA-AEEA-Lys-Glu-Lys-γGlu-C20 diacid])DFIAWLIEHKITD-OH
B7: Compound 5 (peptide)
peptide: HXEGSFTSELATILDXKAARDFIAWLIEHKITD
HELM: PEPTIDE1{H.[Aib].E.G.S.F.T.S.E.L.A.T.I.L.D.K.K.A.A.R.D.F.I.A.W.L.I.E.H.K.I.T.D}|PEPTIDE2{[O=C(O)CCCCCCCCCCCCCCCCC(=O)[*:2]].[gGlu]}$PEPTIDE1,PEPTIDE2,16:R3-2:R2$$$V2.0
SMILES: CC[C@H](C)[C@H](NC(=O)[C@H](Cc1ccccc1)NC(=O)[C@H](CC(=O)O)NC(=O)[C@H](CCCNC(=N)N)NC(=O)[C@H](C)NC(=O)[C@H](C)NC(=O)[C@H](CCCCN)NC(=O)[C@H](CCCCNC(=O)CC[C@H](NC(=O)CCCCCCCCCCCCCCCCC(=O)O)C(=O)O)NC(=O)[C@H](CC(=O)O)NC(=O)[C@H](CC(C)C)NC(=O)[C@@H](NC(=O)[C@@H](NC(=O)[C@H](C)NC(=O)[C@H](CC(C)C)NC(=O)[C@H](CCC(=O)O)NC(=O)[C@H](CO)NC(=O)[C@@H](NC(=O)[C@H](Cc1ccccc1)NC(=O)[C@H](CO)NC(=O)CNC(=O)[C@H](CCC(=O)O)NC(=O)C(C)(C)NC(=O)[C@@H](N)Cc1c[nH]cn1)[C@@H](C)O)[C@@H](C)O)[C@@H](C)CC)C(=O)N[C@@H](C)C(=O)N[C@@H](Cc1c[nH]c2ccccc12)C(=O)N[C@@H](CC(C)C)C(=O)N[C@H](C(=O)N[C@@H](CCC(=O)O)C(=O)N[C@@H](Cc1c[nH]cn1)C(=O)N[C@@H](CCCCN)C(=O)N[C@H](C(=O)N[C@H](C(=O)N[C@@H](CC(=O)O)C(=O)O)[C@@H](C)O)[C@@H](C)CC)[C@@H](C)CC
B8: Compound 63 (peptide)
peptide: H-H[Aib]EGSFTSELATILDAK([AEEA-AEEA-Lys-Glu-Lys-γGlu-C20 diacid])AARDFIAWLIEHKITD-OH
B9: Compound 67 (peptide)
peptide: H-H[Aib]EGTFTSELATILDEQAAK([AEEA-AEEA-Lys-Glu-Lys-γGlu-C20 diacid])DFIAWLIEHKITD-OH

Target: human glucagon-like peptide 1 receptor (GLP-1 R) (human, UniProt P43220 24-463)
Experiment: cell-based or functional assay

Binder | EC50 GLP-1 (nM); cAMP response
B1 | 0.058 nM
B2 | 0.49 nM
B3 | 0.13 nM
B4 | 0.084 nM
B5 | 0.66 nM
B6 | 0.65 nM
B7 | 0.17 nM
B8 | 0.31 nM
B9 | 0.16 nM

Target: T1, human GLP-2 receptor (hGLP2-R)
Experiment: cell-based or functional assay

Binder | EC50 GLP-2 (nM); cAMP response
B1 | 0.12 nM
B2 | 0.2 nM
B3 | 0.35 nM
B4 | 0.1 nM
B5 | 0.087 nM
B6 | 0.18 nM
B7 | 0.063 nM
B8 | 0.17 nM
B9 | 0.22 nM
